Experimental data reported in patent US6627739.
[ ]: non-standard residue; d: D form. Sta = CC(C)C[C@H](N)[C@@H](O)CC(=O)O

How the values were obtained:
[1] = molecular target: T1, recombinant full-length human β-secretase (1-501) expressed from pCEK clone 27 / pCFβA2 in 293T or Cos A2 … (human, UniProt P56817 46-501); experiment: affinity chromatography on peptide-Sepharose, extracts of transfected 293T and COS A2 cells
T1 construct: From 293T cells the N-terminus was mainly residue 46, with minor forms at 22 and 63; From Cos A2 cells it was 46 and 58; also called p501 β-secretase; full length clone 27
T1 sequence (P56817 46-501 limits assumed): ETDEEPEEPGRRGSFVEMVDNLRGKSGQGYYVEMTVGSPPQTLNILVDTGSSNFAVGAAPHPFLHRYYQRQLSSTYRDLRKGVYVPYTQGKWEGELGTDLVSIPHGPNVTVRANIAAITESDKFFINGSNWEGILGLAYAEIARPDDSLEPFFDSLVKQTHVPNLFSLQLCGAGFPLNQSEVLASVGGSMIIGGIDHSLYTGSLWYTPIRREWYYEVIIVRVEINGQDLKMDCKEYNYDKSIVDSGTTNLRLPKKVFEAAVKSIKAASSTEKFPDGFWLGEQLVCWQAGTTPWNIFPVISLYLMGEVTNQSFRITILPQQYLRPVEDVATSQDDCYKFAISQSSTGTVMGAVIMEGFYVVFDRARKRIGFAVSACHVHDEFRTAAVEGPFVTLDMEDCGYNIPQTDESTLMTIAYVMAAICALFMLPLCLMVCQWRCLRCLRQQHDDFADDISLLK
Experimental: The cell pellet was resuspended by homogenizing for 30 seconds using a handheld homogenizer (0.5 ml/pellet of approximately […] in extraction buffer consisting of 20 mM TRIS buffer, pH 7.5, 2 mM EDTA, 0.2% Triton X-100, plus protease inhibitors: 5 µg/ml E-64, 10 µg/ml pepstatin, 1 mM PMSF), centrifuged as maximum speed in a microfuge (40 minutes at 4 degrees C.). Pellets were suspended in original volume of extraction buffer, then stirred at 1 hour at 4 degrees C. with rotation, and centrifuted again in a microfuge at maximum speed for 40 minutes. The resulting supernatant was saved as the "extract." The extract was then diluted with 20 mM sodium acetate, pH 5.0,2 mM EDTA and 0.2% Triton X-100 (SP buffer A), and 5M NaCl was added to a final concentration of 60 mM NaCl. The pH of the solution was then adjusted to pH 5.0 with glacial acetic acid diluted 1:10 in water. Aliquots were saved ("SP load"). The SP load was passed through a 1 ml SP HiTrap column which was pre-washed with 5 ml SP buffer A, 5 ml SP buffer B (SP buffer A with 1 M NaCl) and 10 ml SP buffer A. An additional 2 ml of 5% SP buffer B was passed through the column to displace any remaining sample from the column. The pH of the SP flow-through was adjusted to pH 4.5 with 10× diluted acetic acid. This flow-through was then applied to a P10-P4'staD→V-Sepharose Affinity column, as described below. […]

β-secretase 46-452 = molecular target: T2, β-secretase 46-452 (human, UniProt P56817 46-452); experiment: binding to peptide-Sepharose affinity matrix
T2 construct: C-terminally truncated form lacking the transmembrane region
T2 sequence (P56817 46-452 limits assumed): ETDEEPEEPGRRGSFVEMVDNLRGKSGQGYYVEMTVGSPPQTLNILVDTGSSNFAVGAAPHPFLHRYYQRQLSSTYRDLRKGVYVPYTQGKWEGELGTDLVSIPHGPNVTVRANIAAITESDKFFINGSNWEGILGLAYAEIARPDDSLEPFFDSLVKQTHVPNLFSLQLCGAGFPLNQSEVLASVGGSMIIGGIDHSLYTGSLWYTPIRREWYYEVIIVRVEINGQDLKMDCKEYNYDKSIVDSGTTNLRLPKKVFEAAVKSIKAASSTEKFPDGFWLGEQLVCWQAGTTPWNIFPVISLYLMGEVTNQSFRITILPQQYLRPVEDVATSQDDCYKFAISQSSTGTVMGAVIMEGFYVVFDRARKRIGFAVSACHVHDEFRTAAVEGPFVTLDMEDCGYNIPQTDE
Experimental: The same fractions run under non-reducing conditions (FIG. 6B) provide evidence for disulfide cross-linked oligomers. When the anion exchange pool fractions 18–21 (see FIG. 6B) were treated with dithiothreitol (DTT) and re-chromatographed on a Mini Q column, then subjected to SDS-PAGE under non-reducing conditions, a single band running at about 70 kilodaltons was observed.
All manipulations were carried out at room temperature. 12.5 ml of 80% slurry of NHS-Sepharose (i.e. 10 ml packed volume; Pharmnacia, Piscataway, N.J.) was poured into a Bio-Rad EconoColumn (BioRad, Richmond, Calif.) and washed with 165 ml of ice-cold 1.0 mM HCl. When the bed was fully drained, the bottom of the column was closed off, and 5.0 ml of 7.0 mg/ml P10-P4'sta(D→V) peptide (dissolved in 0.1 M HEPES, pH 8.0) was added. The column was capped and incubated with rotation for 24 hours. After incubation, the column was allowed to drain, then washed with 8 ml of 1.0 M ethanolamine, pH 8.2. An additional 10 ml of the ethanolamine solution was added, and the column was again capped and incubated overnight with rotation. […]

- binding result [1]: binds
- binding result (β-secretase 46-452): binds
Binder: H-KTEEISEVN[Sta]VAEF-OH (also called P10-P4′(statine)D→V) [P10-P4′staD→V (NH2-KTEEISEVN[sta]VAEF-CO2H)]
